# Reference: patent US6207419A, “Thrombin inhibitory agents and methods of using same” (The University of North Carolina at Chapel Hill, priority 1999, dated 2001)
# Assays:
# [1] = system: thrombin; experiment: Thrombin inhibition in the absence of glycosaminoglycan; type: biochemical, human
# Description: All assays were performed at room temperature in 96-well microtiter plates previously coated with 2 mg/mL BSA.
# (§1) Residual thrombin activity was measured with 150 μM GlyProArg-NA and 1 mg/mL pB in the absence of glycosaminoglycan, 2 mg/mL pB in the presence of heparin and 4 mg/mL in the presence of dermatan sulfate. Residual factor Xa activity was measured with 500 μM Spectrozyme FXa and 2mg/mL pB in the presence or absence of glycosaminoglycan. Residual chymotrypsin activity was measured with 150 μM AlaAlaProPhe-NA and residual trypsin activity was measured with 150 μM GlyProArg-NA.
# (§2) Assays were performed at least in triplicate on two or more recombinant protein preparations.
# [2] = biological target: T1, plasma purified α-thrombin (Homo sapiens, UniProt P00734); experiment: Thrombin inhibition in the presence of glycosaminoglycans (heparin or dermatan sulfate); type: biochemical; conditions: for maximal rate of thrombin inhibition in the presence of heparin: heparin at optimal concentration
# T1 construct: Human α-thrombin, HCII, and ATIII were purified in our laboratory from plasma; from tissue; host or cells: human plasma (purified in the authors' laboratory)
# Description: Protease inhibition rates were determined as described previously (Rogers, S. J., Pratt, C. W., Whinna, H. C., and Church, F. C. (1992) J. Biol. Chem. 267(6), 3613-3617; Whinna, H. C., Choi, H. U., Rosenberg, L. C., and Church, F. C. (1993) J. Biol. Chem. 268, 3920-3924; Ciaccia, A. V., Cunningham, E. L., and Church, F. C. (1995) Protein Express. Purific. 6, 806-812; Ciaccia, A. V., Willemze, A. J., and Church, F. C. (1997) J. Biol. Chem. 272(2), 888-893). All assays were performed at room temperature in 96-well microtiter plates previously coated with 2 mg/mL BSA.
# In the presence of glycosaminoglycans, 5 nM rHCII (wt, CHis6, CHis5 Pro, L444R, or L444R-CHis6) was incubated with 0.5 nM thrombin and 0-1 mg/mL heparin or 0-4 mg/mL dermatan sulfate or 10 nM rATIII (wt or CHis6) was incubated with 1 nM thrombin or factor Xa and 0-1 mg/mL heparin in the presence of 2 mg/mL BSA in HNPN, pH 7.4.
# Residual thrombin activity was measured with 150 μM GlyProArg-NA and 1 mg/mL pB in the absence of glycosaminoglycan, 2 mg/mL pB in the presence of heparin and 4 mg/mL in the presence of dermatan sulfate. Residual factor Xa activity was measured with 500 μM Spectrozyme FXa and 2mg/mL pB in the presence or absence of glycosaminoglycan. Residual chymotrypsin activity was measured with 150 μM AlaAlaProPhe-NA and residual trypsin activity was measured with 150 μM GlyProArg-NA. Substrate cleavage was measured by color development at […] on a Vmax Kinetic Microplate Reader (Molecular Devices).
# Assays were performed at least in triplicate on two or more recombinant protein preparations. All inhibition studies were measured under pseudo-first order conditions where inhibitor [I] is at least ten-fold higher than enzyme (protease) [E], and second-order rate constants were calculated as described previously (Ciaccia, A. V., Cunningham, E. L., and Church, F. C. (1995) Protein Express. Purific. 6, 806-812; Ciaccia, A. V., Willemze, A. J., and Church, F. C. (1997) J. Biol. Chem. 272(2), 888-893).
# [3] = Heparin-Sepharose affinity chromatography; type: binding; conditions: NaCl gradient, 20 mM Hepes pH 7.4
# Description: 100 μL of each fraction was aliquoted onto a 96-well microtiter plate and ELISA was performed. The peak elution ionic strength was determined by plotting 405 nm color development and NaCl concentration against the fraction number. All samples were run at least in triplicate using two or more protein preparations. Recombinant ATIII samples were run similarly to the HCII samples, except the elution gradient was run from 50 mM to 2 M NaCl.
# [4] = biological target: T2, α-thrombin (Homo sapiens, UniProt P00734); experiment: Effect of hirugen on thrombin inhibition in the absence of glycosaminoglycan; type: biochemical
# T2 construct: Human α-thrombin, HCII, and ATIII were purified in our laboratory from plasma; from tissue; host or cells: human plasma (purified in the authors' laboratory)
# Description: as §1, §2
# [5] = system: plasma-purified α-thrombin; experiment: Thrombin inhibition with heparin before and after carboxypeptidase A digest; type: biochemical, human; conditions: 2 hr, room temperature, FIG. 3
# Description: Forty ng of CPA was combined with approximately 1 μg of recombinant protein and incubated at room temperature. Following a 2-hr incubation at room temperature, 2 mM EDTA was added to quench CPA activity. Controls were run in which EDTA was added to the reaction prior to the addition of CPA. CPA digested proteins were then assayed according to previously mentioned procedures.
Molecule,rate of thrombin inhibition in the absence of glycosaminoglycan [1],rate of thrombin inhibition relative to rHCII-CHis6 [1],rate of thrombin inhibition compared in words with the untagged serpin ([1]; comparator rHCII-L444R or wt-rATIII as in sentence),dermatan sulfate concentration at maximal rate of thrombin inhibition ([2]; dermatan sulfate),maximal rate of thrombin inhibition in the presence of dermatan sulfate ([2]; dermatan sulfate at optimal concentration),heparin concentration at maximal rate of thrombin inhibition [2],maximal rate of thrombin inhibition in the presence of heparin [2],"Heparin-Sepharose [NaCl], peak elution concentration [3] [mM]","effect of hirugen on thrombin inhibition, in words ([4]; hirugen 20 μM, absence of glycosaminoglycan)","rate constant of inhibition (k2) in the absence of peptide ([4]; no hirugen, no control peptide, FIG. 5) [M⁻¹ s⁻¹]",rate of thrombin inhibition relative to wt-rHCII [1],"change of heparin-dependent thrombin inhibition after CPA digest, in words [5]"
"rHCII-L444R-CHis6: HCII mutant that contains both L444R and a hexahistidine carboxyl tag (protein, UniProt P05546 20-499, looked up, variant L444R, C-terminal His6 tag) Heparin cofactor 2: GSKGPLDQLEKGGETAQSADPQWEQLNNKNLSMPLLPADFHKENTVTNDWIPEGEEDDDYLDLEKIFSEDDDYIDIVDSLSVSPTDSDVSAGNILQLFHGKSRIQRLNILNAKFAFNLYRVLKDQVNTFDNIFIAPVGISTAMGMISLGLKGETHEQVHSILHFKDFVNASSKYEITTIHNLFRKLTHRLFRRNFGYTLRSVNDLYIQKQFPILLDFKTKVREYYFAEAQIADFSDPAFISKTNNHIMKLTKGLIKDALENIDPATQMMILNCIYFKGSWVNKFPVEMTHNHNFRLNEREVVKVSMMQTKGNFLAANDQELDCDILQLEYVGGISMLIVVPHKMSGMKTLEAQLTPRVVERWQKSMTNRTREVLLPKFKLEKNYNLVESLKLMGIRMLFDKNGNMAGISDQRIAIDLFKHQGTITVNEEGTQATTVTTVGFMPRSTQVRFTVDRPFLFLIYEHRTSCLLFMGRVANPSRS",1.59±0.26×10^6 M^-1 min^-1,~ 100 fold,not significantly different,~ 200 μg/mL,8.81±0.20×10^8 M^-1 min^-1,~ 20 μg/mL,2.47±0.35×10^8 M^-1 min^-1,600,less of an effect,35300,,
"rHCII-CHis5 Pro: Recombinant HCII mutant with a His5 Pro carboxyl-terminal tag; SEQ ID NO:7 (protein, His5 Pro C-terminal tag) MKHSLNALLIFLIITSAWGGSKGPLDQLEKGGETAQSADPQWEQLNNKNLSMPLLPADFHKENTVTNDWIPEGEEDDDYLDLEKIFSEDDDYIDIVDSLSVSPTDSDVSAGNILQLFHGKSRIQRLNILNAKFAFNLYRVLKDQVNTFDNIFIAPVGISTAMGMISLGLKGETHEQVHSILHFKDFVNASSKYEITTIHNLFRKLTHRLFRRNFGYTLRSVNDLYIQKQFPILLDFRTKVREYYFAEAQIADFSDPAFISKTNNHIMKLTKGLIKDALENIDPATQMMILNCIYFKGSWVNKFPVEMTHNHNFRLNEREVVKVSMMQTKGNFLAANDQELDCDILQLEYVGGISMLIVVPHKMSGMKTLEAQLTPRVVERWQKSMTNRTREVLLPKFKLEKNYNLVESLKLMGIRMLFDKNGNMAGISDQRIAIDLFKHQGTITVNEEGTQATTVTTVGFMPLSTQVRFTVDRPFLFLIYEHRTSCLLFMGRVANPSRSHHHHHP",32000 M⁻¹ min⁻¹,,,,,10 µg/mL,1.87±0.37×10^9 M^-1 min^-1,,,,~ 2 fold,does not change appreciably
